The results in this text go back to paper PMC9871958 (Protein & Cell, 2022).

In test [1] the target is T1, SARS-CoV-2 RBD protein (SARS-CoV-2, UniProt P0DTC2). In words: SPR. To be noted: both partners purified.
The target of test [2] is T1, SARS-CoV-2 RBD protein. Kind of test: cell-based or functional assay.

B1: 1F (antibody, V domains shown)
VH: EVQLVESGPGLVKPSETLSLTCTVSGGSISSSSYYWGWIRQPPGKGLEWIGSIYYRGSTYYNPSLKSRVTISVDTSKNQFSLKLSSVTAADTAVYYCARHVRSAYYYGSGSYRDEGNWFDPWGQGTLVTVSS
VL: QSVLTQPPSVSGAPGQRVTISCTGTRSNIGAGHDVHWYQQLPGTAPKLLIYGNNNRPSGVPDRFSGAKSGTSASLAITGLQAEDEADYYCQSYDRTLTSYVFGTGTKVTVL
In test [1], B1 had a Kd of 77 pM. Moreover, in test [2], the “IC50 of neutralisation of authentic SARS-CoV-2 virus (1F blocks RBD-ACE2)” value is 0.018 µg/mL.

In general, Kd refers to the equilibrium constant for the complex coming apart. Read a high Kd as a looser complex.
